Results on two substances are retold here after patent US20190275196A1, “Hemostatic Powders with Self-Assembling Peptide Hydrogels” (3-D Matrix, Ltd., priority 2016, published 2019).

Holding throughout (assay type): physicochemical
A short description of data set [1]: Congo Red assay of gel formation of peptide solutions with hemostatic powders. Particulars: for gel formation when mixed with hemostatic powder compared with pure peptide solution: Congo Red assay, visual. The protocol: A Congo Red assay was performed to determine gel formation of peptide solutions in a saline buffer solution (pH 7.4) when used with hemostatic powders.
Pure self-assembling peptide solution (PuraMatrix®), and peptide solution/hemostatic powders (Surgiflo®, Ethicon) mixtures were plated on a glass slide. After 30 seconds, 1% Congo Red solution in saline buffer solution (pH 7.4) was added around and on top of the gel aliquots and then the excess Congo Red solution was wiped off prior to examination. Visualization of gel formation determined the success or failure of gelation. […] In (1) and (2), self-assembling peptide solution (PuraMatrix®) before and after Congo red assay, respectively is shown. In (3) and (4), PuraMatrix® mixed with absorbable gelatin powder (Surgiflo®, Ethicon) at a ratio of 2 to 1 (v/w) before and after Congo red assay, respectively is shown. In (5) and (6), PuraMatrix® mixed with absorbable gelatin powder (Surgiflo®, Ethicon) at a ratio of 5 to 1 (v/w) before and after Congo red assay, respectively is shown.
Pure self-assembling peptide solution (IEIK13 1.3% at pH3.0) and peptide solution/hemostatic powders (Surgiflo®, Ethicon) mixture were plated on a glass slide. After 30 seconds, 1% Congo Red solution in saline buffer solution ([…]) was added around and on top of the gel aliquots and then the excess Congo Red solution was wiped off prior to examination. Visualization of gel formation determined the success or failure of gelation. […] In (1) and (2), self-assembling peptide solution (IEIK13 1.3% at pH 3.0) before and after Congo Red assay, respectively, is shown. In (3) and (4), IEIK13 1.3% at pH 3.0 mixed with absorbable gelatin powder, (Surgiflo®, Ethicon) at a ratio of 2 to 1 (v/w) before and after Congo Red assay, respectively, is shown. The interval of grids in FIG. 8 is 1 cm.

A short description of data set [2]: Apparent miscibility of gelatin powder with peptide solution or saline (syringe mixing). Particulars: various mixing ratios, mixed between two luer-lock syringes, plated on glass slide. As to the method:
Gelatin powder (Surgiflo®) was separately mixed with saline and RADA16 2.5% solution (PuraMatrix®) to determine their apparent miscibility. Gelatin powders were placed in a luer-lock syringe and saline or RADA16 2.5% solution (PuraMatrix®) was placed in another luer-lock syringe. The syringes were connected to mix the contents of the two syringes by moving the plungers back and forth, for example, six times until the consistency was even. The mixtures were plated on a glass slide. FIG. 3 presents images of gelatin powder (Surgiflo®) and saline mixtures (upside images) and gelatin powder and RADA16 2.5% (PuraMatrix®) mixtures at various mixing ratios.
Gelatin powder (Surgiflo®) was mixed with IEIK13 1.3% (pH 3.0) solution to determine its apparent miscibility. Gelatin powders were placed in a luer-lock syringe and IEIK13 1.3% (pH 3.0) was placed in another luor-lock syringe. The syringes were connected to mix contents of the two syringes by moving the plungers back and forth, for example, six times until the consistency was even. The mixtures were plated on a glass slide. FIG. 9 presents images of gelatin powder (Surgiflo®) and IEIK13 mixtures at various mixing ratios.

A short description of data set [3]: Rheology (storage/loss modulus, frequency sweep) before and after DMEM treatment. As to conditions: DMEM for 20 min; 25° C.; 1-10 rad/sec. As to the method: The rheological properties of gelatin powders with saline, self-assembling peptide, and gelatin powder with self-assembling peptide were evaluated using a rheometer (DHR-1, TA Instruments) with 20 mm plates. The samples were placed on the rheometer plate and the moduli were measured at 25° C. with the plates placed at a measuring geometry gap of 1000 μm. Measurements were performed after 2 minutes of relaxation time at 25° C. Frequency sweep tests were performed at 1 rad/sec˜10 red/sec of oscillation stress with strain at 0.01.
Pure RADA16 2.5% (PuraMatrix®), gelatin powder (Surgiflo®) mixed with saline at 2:1 w/v ratio, and gelatin powder mixed with RADA16 2.5% at various mixing ratios were all tested. These samples were treated with DMEM for 20 min after their frequency tests were performed without DMEM treatment. FIG. 4 presents the rheology of gelatin powders mixed with saline at a ratio of 2:1 w/v before and after DMEM treatment. FIG. 5 presents the rheology of RADA16 2.5% solution before and after DMEM treatment. FIG. 6 presents the rheology of gelatin powders mixed with RADA16 2.5% at a ratio of 1:5 w/v before and after DMEM treatment.

[4] abbreviates: peptide solution mixed with gelatin powder (Surgiflo®) at a ratio of 2 to 1 (v/w), 1% Congo Red in saline buffer solution (pH 7.4).

For RADARADARADARADA [RADA16 2.5%], in data set [1], the “gel formation when mixed with hemostatic powder compared with pure peptide solution” value is given as “gelled even when mixed with hemostatic powder to a similar extent as observed in pure peptide solution”. Besides, the “gel formation (gelation)” value in data set [1] (setting [4]) is given as “capable of gelation”; in data set [1] (peptide solution mixed with gelatin powder (Surgiflo®) at a ratio of 5 to 1 (v/w), 1% Congo Red in saline buffer solution (pH 7.4)) it was “capable of gelation”. Moreover, the “apparent miscibility with gelatin powder (Surgiflo®)” value in data set [2] was “capable of homogenous mixture”; in data set [2] (listed as RADA16) it was “homogeneously mixed across various mixing ratios”. In addition, the “change of moduli (storage/loss) after DMEM treatment” value in data set [3] was “increased”.
In the case of “IEIK13 1.3% (pH3.0): self-assembling peptide having the repeating sequence Ile-Glu-Ile-Lys (IEIK), 1.3% solution at pH 3.0”, in data set [1], the “gel formation when mixed with hemostatic powder compared with pure peptide solution” value was “gelled even when mixed with hemostatic powder to a similar extent as observed in pure peptide solution”. Moreover, the “gel formation (gelation)” value is “capable of gelation” in data set [1] (mixed with a hemostatic powder at a ratio of 5 to 1, expected, not tested) and “capable of gelation” in data set [1] (setting [4]). For the same substance, the “apparent miscibility with gelatin powder (Surgiflo®)” value in data set [2] was “capable of homogenous mixture”; in data set [2] (listed as IEIK13), “homogeneously mixed across various mixing ratios”.
